Test results from patent US20260258115A1 (MAPP BIOPHARMACEUTICAL, published 2026).

B1: ADI-14339 (antibody, V domains shown)
VH: QVQLVESGGGVLQPGRSLRLPCEASGFTFNKYAMHWVRQAPGKGLEWVAAVSYDGGNKFYAESVKGRFTISRDNSKNTLYLQMNSLKPEDTAVYYCARDRWELLHGLDYWGLGTLVTVSS
VL: SYELTQPPSVSVSPGQTARITCSGEALAKQYAYWYQQKPGQAPVLVIYKDNERPSGISERFSGSSSGTTVTLTISGVQAEDEADYYCQSADSSGTYVFGTGTKVTVL
notes: full-length IgG; also called Ab 7
B2: ADI-14360 (antibody, V domains shown)
VH: QVQLVQSGAEVKKPGASVKVSCKASGYTFTTYSMHWVRQAPGQRLEWMGWINAGNGNTKYSQKFQGRVTITRDTSASTAYMELSSLRSEDTAVYYCARDGVGGAYYYGEMDVWGQGTTVTVSS
VL: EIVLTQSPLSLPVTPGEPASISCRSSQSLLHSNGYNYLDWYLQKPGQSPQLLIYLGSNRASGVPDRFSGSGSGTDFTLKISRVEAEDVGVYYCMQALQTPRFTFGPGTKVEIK
notes: full-length IgG; also called Ab 28
B3: ADI-14354 (antibody, V domains shown)
VH: QVQLVQSGAEVKKPGSSAKVSCKASGGTFSSYTISWVRQAPGQGLEWMGRIIPFLGIANYAQKFQGRVTFTADKSTSTVYMDLSRLRSEDTALYYCAREPMYYGGDSYAFDVWGQGTTVTVSS
VL: QSVLTQPASMSGSPGHSITISCTGTSSDVGAYNYVSWYQQHPGKAPKLMIYDVSNRPSGVSSRFSGSKSGNTASLTISGLQPEDEADYYCSSFTTSSTRVFGTGTKLTVL
notes: full-length IgG; also called Ab 22
B4: ADI-22763 (antibody, V domains shown)
VH: EVQLVESGGGLIQPGGSLRLSCAASGFTFSTYEMNWVRQAPGKGLEWVSSISTSGSTKDYAGSVKGRFTVSRDNAKNSLYLQMNSLRAEDTAIYYCARVYYYDSSGYYLALFDYWGQGTLVTVSS
VL: EIVLTQSPSSLSASVGDRVTITCRASQSIASYLNWYQQKPGKAPKLLIYAASSLRSGVPSRFSGSGSGTDFTLTISSLQPEDFATYYCQQSYSTPSLTFGGGTKLEIK
notes: full-length IgG
B5: ADI-22778 (antibody, V domains shown)
VH: EVQLVESGPGLVKPSETLSLTCTVSGGSINSYSWTWIRQPPGKGLEWLGSFDYSGSNTYNPSLKSRVTIAVDTSKNQFSLKLTSATAADTAVYYCARAPVYDSSGYYLYYFDNWGQGTLVTVSS
VL: DIQMTQSPSSLSASVGDRVTITCRASQSIASYLNWYQQKPGKAPKLLIFAASNLHSGVPSRFSGSGSGTTFTLTISSLQPEDFATYYCQQSYSIRFFTFGPGTKLEIK
notes: full-length IgG
B6: ADI-22777 (antibody, V domains shown)
VH: QVQLVQSGAEVKRPGASVKVSCKASEYTFNFHDINWVRQAPGQGLEWMGWMNPKSGNTGYAQKFQGRVTMTRDTSKNTAYLELSSLRSEDTAVYYCARGYGTSWSSDSWWGQGTLVTVSS
VL: SYELTQLPSVSVSPGQTARITCSGDALSKQFVYWYQQKPGLAPMLVIYKDTNRPSWIPERFSGSGSGTTATLTISEVQAEDEADYYCQSVDNSGTYGWVFGGGTKVTVL
notes: full-length IgG
B7: ADI-14351 (antibody, V domains shown)
VH: EVQLLESGGGLVQPGGSLRLSCSASGFTFSTYWMHWVRQAPGKGLVWVSRINGDGNDRNYADSVKGRFTISRDNAKNTVYLQMNSLRAEDTAVYYCARGGATGDFYFGMDVWGQGTTVTVSS
VL: SYELTQPPSVSVAPGKTAKITCGGNNIGTKSVHWYQQKPGQAPVLVIYYDTDRPSGIPERFSGSNSGNTATLTISRVEAGDEADYYCQVWDSSNSDHVGVFGGGTQLTVL
notes: full-length IgG; also called Ab 19
B8: ADI-22780 (antibody, V domains shown)
VH: EVQLVESGPTLVKPTQTLTLTCTFSGFSLSTSGVGVGWIRQPPGKALEWLALIYWDDDKRYSPSLKSRLTITKDTSKNQVVLTMTNMDPVDTATYYCAHRGRQYSYGYYYFDYWGQGTLVTVSS
VL: QSVLIQPASVSGSPGQSITISCTGTSSDVGGYNFVSWYQQHPGKAPKLMIYDVSNRPSGVSNRFSGSKSGNTASLTISGLQAEDEADYYCSSYTSSTLDVFGTGTKVTVL
notes: full-length IgG
B9: ADI-22764 (antibody, V domains shown)
VH: QVQLVESGPGLVRPSGTLSLTCAVSGGSISGKNWWSWVRQPPGKGLEWIGEIDHSGSTNYNPSLKSRVTISVDKSKNQFSLKLSSVTAADTAVYYCARTGLYDSSGYYLYYFNYWGQGTLVTVSS
VL: EIVMTQSPSSLSASVGDRVTISCRASQTIASYVNWYQQRPGKAPNLLIFAASNLQTGVPSRFRGSGSGTVFTLTISSLQPEDFATYYCQQSYSTPRTFGQGTKVDIK
notes: full-length IgG
B10: ADI-22760 (antibody, V domains shown)
VH: EVQLVESGGGLVQPGRSLRLSCVASGFTFDDYAMHWVRQAPGKGLEWVSGINWNSGGIGYADSVKGRFTISRDNTKNSLYLQMNSLRAEDTALYYCAKDGSALMGYGVEVWGQGTTVTVSS
VL: SYELTQPPSASGTPGQRVTISCSGSNSNIGNNYVYWYQQLPGTAPKLLIYRNNQWPSGVPDRFSASKSGTSASLAISGLRSEDEADYYCASWDDSLSALVFGGGTKLTVL
notes: full-length IgG; also called Ab 340
B11: ADI-19484 (antibody, V domains shown)
VH: QVQLQESGSGLVKPSQTLSLTCVVSGGSISSGGNSWSWIRQPPGKGLEWIGYIYDSGNTYYNPSLKSRVTISVDRSKNQFSLKVSSVTAADTAVYYCARGAETGTTGWYDPWGQGTLVTVSS
VL: DIRLTQSPSSLSASVGDRVTITCRASQTISSYLNWYQQKPGKAPRLLIYAASSLQSGVPSRFSGSGSGTDFTLTISSLQPEDFATYYCQQSYGTPRTFGQGTKVEIK
notes: full-length IgG
B12: ADI-14358 (antibody, V domains shown)
VH: QVQLVQSGGGLVKPGGSLRLSCVASGFTFSDYYMTWIRQAPGKGLEWVSYISGSSAYTIYADSVKGRFTISRDNAKNSLYLQMNGLRAEDTAVYYCARVSWVRSLDSWGQGTLVTVSS
VL: QSALTQPASVSGSPGQSITISCTGSTSDVGLYNYVSWYQLHPGKAPKLIIYDVRHRPSGVSDRFSASKSGNTASLTISGLQAEDEADYYCCSYTSSSTYVFGSGTQLTVL
notes: full-length IgG; also called Ab 26
B13: ADI-19505 (antibody, V domains shown)
VH: QVQLVQSGAEVKKPGESLKISCKGSGYSFTNYWIGWVRQMPGKGLEWMGITYPGDSDTRYSPSFQGQVTISADKSISTAHLQWDSLKASDTAMYYCARLRCTGSICYDAFDIWGQGTTVTVSS
VL: SYVLTQPLSVSVALGQTARITCGGNNIGSKNVHWYQQKPGQAPVLVIYRDNNRPSGIPERFSGSNSGNTATLTISRAQAGDEADYYCQVWDSSTGGDVFGAGTKVTVL
notes: full-length IgG
B14: ADI-14352 (antibody, V domains shown)
VH: EVQLLETGPGLVKPSQTLSLICAVSGGSISSGGYSWSWIRQPPGKGLEWVGYISYSGSTYYNPSLKSRVTISVDTSKNQFSLKLNSVTAADTAVYFCARVDGIYSSGMRFDYWGQGTLVTVSS
VL: DIQLTQSPGTLSLSPGERATLSCRASQSVSSYYLAWYQQKPGQAPRLLIYGTSSRATGIPDRFSGSGSGTDFTLTISRLEPEDFAVYYCQQYGRSPLFGQGTRLEIK
notes: full-length IgG; also called Ab 20

Target: T1, RSV prefusion F (preF), subtype B (respiratory syncytial virus subtype B)
T1 construct: also called Prefusion subtype B
Assay: BLI, IgG

Binder | Kd [nM]
B1 | 1.77
B2 | 26.8
B3 | 25.3
B4 | 10.8
B5 | 4.02
B6 | 0.762
B7 | 0.789
B8 | 23.8
B9 | 1.42
B10 | 3.07
B11 | 8.92
B12 | 60.3
B13 | 44.4
B14 | 5.54

Target: T2, RSV postfusion F (postF), subtype B (respiratory syncytial virus subtype B)
T2 construct: also called Postfusion subtype B
Assay: BLI, IgG

Binder | Kd [nM]
B1 | 0.376
B2 | 9.03
B3 | 6.63
B4 | 5.33
B5 | 2.77
B6 | 0.224
B7 | 0.215
B8 | 0.6
B9 | 1.44
B10 | 1.25
B11 | 0.355
B12 | 27.5
B13 | 5.01
B14 | 0.383

Target: T3, RSV postfusion F (postF), subtype A (respiratory syncytial virus subtype A, UniProt P03420 26-513)
T3 construct: also called Postfusion subtype A; F deltaFP
Assay: BLI, IgG

Binder | Kd [nM]
B1 | 0.439
B2 | 5.88
B3 | 1.04
B4 | 0.319
B5 | 0.209
B6 | 0.268
B7 | 0.361
B8 | 0.739
B9 | 0.334
B10 | 1.19
B11 | 0.369
B12 | 0.656
B13 | 4.94
B14 | 0.448
